Experimental data published in publication PMC10478084, “Use of Epivolve phage display to generate a monoclonal antibody with opsonic activity directed against a subdominant epitope on extracellular loop 4 of Treponema pallidum BamA (TP0326)” (Frontiers in Immunology, 2023).
Numbering of substitutions follows the chain as printed. Like-named read-outs stand apart in the source and are kept apart here. No end group written: not given here. *: point of attachment. Biotin = O=C1N[C@H]2[C@H](CS[C@H]2CCCCC(=O)*)N1

What was measured:
[1] = biological target: T1, Tp BamA β-barrel (TP0326) (Treponema pallidum subsp. pallidum, …, UniProt O83346)
[2] = biological target: T2, BamA ECL4 peptide S2, native (Treponema pallidum subsp. pallidum, …)
T2 chain: Biotin-RVVKNFYDKDNNQPFDL

[3] = biological target: T1, Tp BamA β-barrel (TP0326); assay: immunoblot; 200 to 1 ng of PfTrx^BamA/ECL4 or of BamA β-barrel (in 8M urea, Laemmli buffer) resolved by SDS-PAGE, transferred to nitrocellulose, probed with mAb at 4 μg/ml; conditions: both partners purified

B1: IGX7128 (antibody, V domains shown)
VH: EVQLVQSGADVKKPGASLTISCQASGYTFTDYWISWVRQKPGKGLEWMGAIAPSTSKTEYGPSFQGHVTISADRSTATAYLQWRSLEASDTAMYYCVRQSAQTDSWGPGTLVTVSS
VL: SYELTQPPSVSVSPGQTARITCSGDALPKKYAYWYQQKSGQAPVLVIYEDRKRYSGIPERFSGSSSGTMATLTISGAQVEDEADYYCYSKAAKGNYMVFGGGTKLTVL
B1: binds [1]; binds [2].

B2: mAb IGX7141 (antibody, V domains shown)
VH: B1 VH with A52S, S54A, T55N, K57R, E59S, I70F, S100G
VL: B1 VL with R51M, Y54P, A92S, K93D, M97F
notes: heavy-chain variable region from the Epivolve scFv; mouse IgG2 heavy-chain constant region; light-chain variable region LC3; mouse light-chain constant domain; Mouse IgG2 with variable regions selected from a human scFv phage library (Epivolve) and matured by error-prone PCR; source: HEK293-E, transfected (pTT5), purified from supernatant (Protein A)
B2: binds [3].

B3: IGX7134 (antibody, V domains shown)
VH: B1 VH with D10V, I34F, H67L, Y80N, S100G, Q102H
VL: B1 VL
B3: binds [1]; binds [2].

B4: mAb IGX7140 (antibody, V domains shown)
VH: B1 VH with F29L, A52S, S54A, T55N, K57R, E59S, I70F, S100G, S105R
VL: B1 VL with S13P, R51M, Y54P, M69T, A92F, K93D, M97F
notes: heavy-chain variable region from the Epivolve scFv; mouse IgG2 heavy-chain constant region; light-chain variable region LC2 (as the light chain of m2); mouse light-chain constant domain; Mouse IgG2 with variable regions from the Epivolve scFv; also called IXG7140; source: HEK293-E, transfected (pTT5), purified from supernatant (Protein A)
B4: binds [3].

B5: mAb IGX7137 (antibody, V domains shown)
VH: B1 VH with A24T, F29L, A52S, S54A, T55N, K57R, E59S, I70F, S100G, S105R
VL: B1 VL with S13P, R51M, Y54P, M69T, A92F, K93D, M97F
notes: heavy-chain variable region from the Epivolve scFv; mouse IgG2 heavy-chain constant region; light-chain variable region LC2 (shared with IGX7140); mouse light-chain constant domain; Mouse IgG2 with variable regions from the Epivolve scFv; source: HEK293-E, transfected (pTT5), purified from supernatant (Protein A)
B5: binds [3].
